B1: Tumor necrosis factor alpha-induced protein 8-like protein 2 (Homo sapiens), Q6P589 (parent)
chain: MESFSSKSLALQAEKKLLSKMAGRSVAHLFIDETSSEVLDELYRVSKEYTHSRPQAQRVIKDLIKVAIKVAVLHRNGSFGPSELALATRFRQKLRQGAMTALSFGEVDFTFEAAVLAGLLTECRDVLLELVEHHLTPKSHGRIRHVFDHFSDPGLLTALYGPDFTQHLGKICDGLRKLLDEGKL

Variants of: B1
Settings: with RAC1, P63000-1

Variant | effect of a mutation on the interaction
K15Q;K16Q | decreasing interaction strength
R24A | disrupting interaction strength

From IntAct's records for PubMed 22949657
